This data set can be described thus: soluble on expression in E. coli; label from the status in PepcDB or PDB records.
On to “ARAEQFTTSLLSIISNNNLLAKATSESIMGAAMKAAVLNLPIEPSLGFAYVVPYNRNYKDGNRWITVNEAQFQIGYRGLIQLAQRSGQVRNIEHGIIYEEEFLGYDKIRGQLKLTGDYVDSGVVKGYFASLELISGFYKMIFWPKEKVYEHAKKYSKTFDKKTGDFKPGTPWATEFDPMAIKTLLKELLSKYAPLSVEMQDALEADNADSTIVIPKDVTPQETNSLDDLIGTQ”, for which the “soluble on expression in E. coli” value is reported as “not soluble”.
As to “MGSDKIHHHHHHVLAPSSADTLQGLPYEVVSYRKTYESGYRSDWHSHPRHQIIYSVSGLMMTDTEGVRWAVPSGFGLIVPAGIAHTTKMIGDVSIETLYVSPSSRGRSAFESCRVVSISAMLASLISELCREELRDRNSRKAFHLRQLIFLELSDAPTSHLAVKYPVDPQLRRVCDALIADPANSWTIDQWAFEIGKSRRSFTRAFYSQTDQTFRQWTQRLRCQLALQKRAEGQSLERIARDLGYGSRYSLEAMMQKLIMVEEIN”, the “soluble on expression in E. coli” value is recorded as “not soluble”.
On to “MGSDKIHHHHHHMSCAHVLRTWAPCIMRRAEQALRNSSYLAWETAMGKLALAAKVTHVPSLYLSELDGPHKGCRQPAIDGHHEIGRRCRELGVDTIVVFDVHWLVNSEYHINCAPKFEGIYTSNELPHFIRNMPYAYPGNVELGNLIAEVASEMGVKSRAHSETTLELEYGTLVPMRYMNADQHFKAVSVAGWCVWHDLDTSVRFGLAVRKAIEERYEGTVAILASGSLSHHFANNGTAEQFMHKVWNPFLEQMDRKVVELWEAGDWKTFCEMLPLYNEKCWGEGGMHDTAMLLGALGWDRYEGKVEVVTPYFGSSGTGQINAIFPVTPLPV”, for which the “soluble on expression in E. coli” value is recorded as “not soluble”.
Next, “MGSDKIHHHHHHMIALKELKQYADLHVKTHSFQVINPRQVLQSIERAASEEPTAGGWDWQWVDAANKCLQANAIEDAIQCYNFARFPFPKTSLQQEAADRLTKVFEQAYCREDVQKHRVYYDNQKVTVYAANLHPDLPCLLVLGGIVSIKEQWSVFLQVGKRLGFSVLITECPGVGENQVRYHADSYRMIGQILDTFAGQAKVGDTYIVGMSFGGHLAMKQALHDERIKGITTVGAPLHYFFQDYSQLNVPFITQATLAHVMEEELDHVGRALSRFAFMPKELNKLKIPITYIFSSKDEIIPKSEKSFLLDNIANLTFYEFDDVHGSPNHLPLIQKIIPLSILKHSNSKRYFVRIMLAFLLTYNKWKGRDGKR”: “not soluble”; “MANPIKIGIGGPVGAGKTQLIEKVVKRLSKEMSIGVITNDIYTKEDEKILVNSGVLPESRIIGVETGGCPHTAIREDASMNFAAIDELLERHDDIELIFIESGGDNLAATFSPELVDFSIYIIDVAQGEKIPRKGGQGMIKSDFFVINKTDLAPYVGASLEQMAEDTKVFRGKRPFTFTNLKTDEGLDEVIDWIERDTLLKGLS”: “not soluble”.
Consider “GSMASAAVANYEEEIVRPVADFSPSLWGDQFLSFSIKNQVAEKYAKEIEALKEQTRNMLLATGMKLADTLNLIDTIERLGISYHFEKEIDDILDQIYNQNSNCNDLCTSALQFRLLRQHGFNISPEIFSKFQDENGKFKESLASDVLGLLNLYEASHVRTHADDILEDALAFSTIHLESAAPHLKSPLREQVTHALEQCLHKGVPRVETRFFISSIYDKEQSKNNVLLRFAKLDFNLLQMLHKQELAQVSRWWKDLDFVTTLPYARDRVVECYFWTLGVYFEPQYSQARVMLVKTISMISIVDDTFDAYGTVKELEAYTDAIQRWDINEIDRLPDYMKISYKAILDLYKDYEKELSSAGRSHIVCHAIERMKEIVRNYNVESTWFIEGYTPPVSEYLSNALATTTYYLLATTSYLGMKSATEQDFEWLSKNPKILEASVIICRVIDDTATYEVEKSRGQIATGIECCMRDYGISTKEAMAKFQNMAETAWKDINEGLLRPTPVSTEFLTPILNLARIIEVTYIHNLDGYTHPEKVLKPHIINLLVDSIKI”, for which the “soluble on expression in E. coli” value is “soluble”.
As for “MNTKPQLTLLKVQASYRGDPTTLFHQLCGARPATLLLESAEINDKQNLQSLLVIDSALRITALGHTVSVQALTANGPALLPLLDEALPPEVRNQARPNGRELTFPAIDAVQDEDARLRSLSVFDALRTILTLVDSPADEREAVMLGGLFAYDLVAGFENLPALRQDQRCPDFCFYLAETLLVLDHQRGSARLQASVFSEQASEAQRLQHRLEQLQAELQQPPQPIPHQKLENMQLSCNQSDEEYGAVVSELQEAIRQGEIFQVVPSRRFSLPCPAPLGPYQTLKDNNPSPYMFFMQDDDFTLFGASPESALKYDAGNRQIEIYPIAGTRPRGRRADGSLDLDLDSRIELEMRTDHKELAEHLMLVDLARNDLARICQAGSRYVADLTKVDRYSFVMHLVSRVVGTLRADLDVLHAYQACMNMGTLSGAPKVRAMQLIAALRSTRRGSYGGRVGYFTAVRNLDTCIVIRSAYVEDGHRTVQAGAGVVQDSIPEREADETRNKARAVLRAIATAHHAKEVF”, the “soluble on expression in E. coli” value is “soluble”.

For the origin of these results see the DeepSol protein solubility set.
